In patent publication US20230076063 one finds activity (mean SMALR native score) data, which are given here for two substances.

The test system of data set [1] is MamA DNA methyltransferase (Mycobacterium tuberculosis). The data set can be described thus: cell_activity. The note with it: SMRT sequencing kinetics; mostly fully methylated reads.
Data set [2] concerns MamB DNA methyltransferase (Mycobacterium tuberculosis). The data set can be described thus: cell_activity. The note with it: SMRT sequencing kinetics.

With “CTGGAG (double strand) [MamA target motif sites]”, the activity (mean SMALR native score) in data set [1] worked out at 2.14.

The substance MamB target motif sites registered an activity (mean SMALR native score) in data set [2] of 2.19.
